In patent publication US20020106347A1, “Cytokines and their use in treatment and/or prophylaxis of breast cancer” (priority 1995, published 2002):

Tests used:
Type in all cases: cell-based, human
[1] = system: MCF-7 cells; test: Clonogenic assay in agar after monolayer culture; details: MCF-7, 7 days monolayer then 14 days agar
Procedure: FIG. 3 is a graphical representation showing clonogenicity of MCF-7M cells. Following suspension culture MCF-7M cell viability was measured by agar culture. Cells were plated in agar with the indicated concentrations of each of the growth factors. After 14 days culture colonies of cells were counted. Cell numbers reported here are the results of 3 experiments, each performed in triplicate, and are expressed according to the number of cells that went into suspension culture.
FIG. 17 is a graphical representation showing clonogenicity of MCF-7 cells after 1 week in suspension culture. Following suspension culture clonogenicity of MCF-7 cells was assayed in agar culture. Cells were plated in agar with the indicated growth factor and maintained at 37° C0 in a humidified incubator with 5% CO2 in air. After 14 days colonies of cells were counted. Results are from 9 experiments using IL-6, LIF and OSM, and 5 experiments using CNTF and IL-11. Each experiment was performed in triplicate, and colony numbers are expressed as a percentage of untreated controls.
Clonogenic potential of cells following monolayer culture was assessed in a semi-solid culture medium. Cells were cultured in triplicate in 35 mm Petri dishes containing 1 ml Iscove's modified Dulbecco's medium (IMDM) supplemented with 25% (v/v) (v/v) BCS, 0.3% (w/v) agar with final concentration of growth factor as outlined above, and with 200 cells per ml for control cultures Cultures were maintained at 37° C. in a humidified incubator with 5% (v/v) CO2 in air. After 14 days, colonies were enumerated using a dissecting microscope. A colony was defined as a clone of greater than 40 cells. All cultures were performed in triplicate.

[2] = system: MCF-7 cells; test: Cell morphology after exposure to growth factor; details: MCF-7 / MCF-7M, 6-14 days in growth factor
Description: FIG. 4 is a photographic representation showing morphology of growth factor stimulated MCF-7M cells. Following 1 week in suspension culture containing the various growth factors, MCF-7M cells were cytospun onto slides and subsequently stained with Giemsa.
FIG. 11 is a photographic representation showing cell morphology after exposure to OSM. MCF-7 cells from control cultures and appears of cells after 7 days in OSM. A) Control cells, 10× magnification. B) OSM treated cells, 10× magnification. C) OSM treated cells, 40× magnification. D) OSM treated cells, 100× magnification.
FIG. 15 is a photographic representation showing cell morphology after exposure to OSM. MCF-7 cells from control cultures (Panel A) and appearance of cells after culture for 14 days in OSM (10 ng/ml) (Panel B). MDA-MB-231 cells from control cultures (Panel C) and appearance of cells after culture for 7 days in OSM (Panel D).

[3] = system: MCF-7 cells; test: Proliferation of MCF-7 cells in monolayer (liquid) culture, viable cell count; details: for mean inhibition of cell proliferation: MCF-7, 7 days exposure, LIF 1000 U/ml, IL-6 100 ng/ml, OSM 10 ng/ml, IL-11 100 ng/ml, vs untreated control; for effect on cell proliferation (in words): MCF-7 / MCF-7M, up to 1 week culture
Procedure: FIGS. 2A, B and C are graphical representations of MCF-7M cells in liquid culture. 10^4 MCF-7M cells were cultured in 500 μl RPMI/10% bovine calf serum (BCS) (v/v) containing the indicated concentration of each of the growth factors (OSM or LIF). After 7 days culture viable cells were counted using a hemacytometer. Cell numbers reported here are the result of one experiment, each performed in triplicate.
FIG. 7 is a graphical representation showing inhibition of proliferation of MCF-7 cells by Oncostatin M (OSM). 10^4 MCF-7 cells were cultured in 500 μl RPMI/10% (v/v) BCS with the indicated concentrations of OSM. At 2, 4 and 6 days, viable cells were counted using a hemacytometer. Results are from 3 experiments, each performed in triplicate.
FIG. 8 is a graphical representation showing that MCF-7 cells are inhibited in a dose-dependent fashion by Oncostatin M (OSM). 10^4 MCF-7 cells were cultured in 500 μl RPMI/10% (v/v) BCS with the indicated concentrations of OSM. After 7 days viable cells were counted, and cell number expressed as a percentage of the corresponding untreated control value.
(§1) FIG. 16 is a graphical representation showing inhibition of MCF-7 cells after 7 days in suspension culture. 10^4MCF-7 cells were cultured in 500 μl RPMI/10% (v/v) BCS with the indicated growth factor. After 7 days viable cells were counted using a hemacytometer. Results are from 9 experiments, each performed in triplicate.
(§2) Proliferation of the cell lines was measured in monolayer culture in 24 well Costar cluster plates. Cells were plated at an initial density of 10 000 cells/ml and cultured in 500 μl RPMI-1640 supplemented with 10% (v/v) (v/v) BCS and with each growth factor as indicated (LIF, 1000 U/ml; IL-6, 100 ng/ml; OSM, 10 ng/ml; CNTF, 10 ng/ml; IL-11, 100 ng/ml). These concentrations are maximally active in other systems (Nandurkar et al., 1996; Hilton et al., 1994; Zhang et al., 1994; Tanigawa et al., 1995). After 7 or 10 days at 37° C. in a fully humidified atmosphere containing 10% (v/v) CO2 in air, cells were trypsinised and counted using a haemocytometer and an inverted microscope. Cell viability was assessed using eosin exclusion. Results were expressed as a percentage of the corresponding untreated control value for that experiment.

[4] = system: four breast cancer cell lines; test: Proliferation of four breast cancer cell lines in monolayer culture (summary)
Procedure: as §2
Experiments were performed to determine whether these morphological changes were associated with alterations in cell growth. The proliferation of four breast cancer cell lines was examined in monolayer cultures containing either IL-6, LIF, OSM, CNTF or IL-11.

[5] = system: BT-549 cells; test: Proliferation of BT-549 cells in culture, viable cell count
Procedure: FIGS 5A and B are graphical representations of BT-549 cells in liquid culture. 10^4 BT-549 cells were cultured in 500 μl RPMI/10% (v/v) BCS containing the relevant concentration of each of the growth factors (OSM, IL-11 and IL-6). After 10 days, culture viable cells were counted using a hemacytometer. Cell numbers reported here in the two graphs are the results of 1 experiment performed in triplicate.
FIG. 18 is a graphical representation showing BT-549 cells after 10 days in suspension culture. 10^4BT-549 cells were cultured in 500 μl RPMI/10% (v/v) BCS with the indicated growth factor. After 10 days culture viable cells were counted using a hemacytometer. Results are from 6 experiments, each performed in triplicate.
as §2

[6] = system: MDA-MB-231 cells; test: Proliferation of MDA-MB-231 cells in culture, viable cell count; details: MDA-MB-231
Procedure: as §1, with “19” for “16”, “MDA-MB-231” for “inhibition of MCF-7”, “10^4MDA-MB-231” for “10^4MCF-7”, “8” for “9”
as §2

## interleukin-6 [IL-6]
[1]
  effect on colony formation / clonogenic potential (in words): significant reduction of colony formation
[2]
  cell morphology (in words): morphologically similar to the control
[3]
  mean inhibition of cell proliferation: 23%
  effect on cell proliferation (in words): did not appear to be able to induce inhibition
[4]
  cell lines with significant inhibition of cellular proliferation: ¼

B1: interleukin-11 (protein, UniProt P20809 22-199, looked up)
Interleukin-11: PGPPPGPPRVSPDPRAELDSTVLLTRSLLADTRQLAAQLRDKFPADGDHNLDSLPTLAMSAGALGALQLPGVLTRLRADLLSYLRHVQWLRRAGGSSLKTLEPELGTLQARLDRLLRRLQLLMSRLALPQPPPDPPAPPLAPPSSAWGGIRAAHAILGGLHLTLDWAVRGLLLLKTRL
notes: human IL-11 purchased from Pepro Tech; cytokine
[1]
  effect on colony formation / clonogenic potential (in words): did not have detectable effect on subsequent clonogenicity
[5]; BT-549
  effect on cell proliferation (in words): inhibited
[5]; BT-549, 7 days
  mean growth inhibition: 30%
[5]; BT-549, 10 days
  growth inhibition, up to (maximum observed): up to 63%
  mean growth inhibition: 56%
[3]
  mean inhibition of cell proliferation: 27%
[4]
  cell lines with significant inhibition of cellular proliferation: 2/4

B2: ciliary neurotrophic factor (protein, UniProt P26441 1-200, looked up)
Ciliary neurotrophic factor: MAFTEHSPLTPHRRDLCSRSIWLARKIRSDLTALTESYVKHQGLNKNINLDSADGMPVASTDQWSELTEAERLQENLQAYRTFHVLLARLLEDQQVHFTPTEGDFHQAIHTLLLQVAAFAYQIEELMILLEYKIPRNEADGMPINVGDGGLFEKKLWGLKVLQELSQWTVRSIHDLRFISSHQTGIPARGSHYIANNKKM
notes: human CNTF purchased from AMRAD Operations Ltd; cytokine
[1]
  effect on colony formation / clonogenic potential (in words): no effect on clonogenic potential
[6]
  effect on cellular proliferation (in words): did not respond
[3]
  effect on cell proliferation (in words): no effect on cellular proliferation
